Results from patent publication US20230340151A1 (Pfizer, published 2023).
Like-named read-outs stand apart in the source and are kept apart here.

Tests used:
Human CD3 epsilon-delta [1] = biological target: T1, Human CD3 epsilon-delta (human); assay: SPR, CD3 captured by anti-His, 25 C
T1 construct: Single-chain epsilon-linker-delta with His6; also called huCD3
T1 chain: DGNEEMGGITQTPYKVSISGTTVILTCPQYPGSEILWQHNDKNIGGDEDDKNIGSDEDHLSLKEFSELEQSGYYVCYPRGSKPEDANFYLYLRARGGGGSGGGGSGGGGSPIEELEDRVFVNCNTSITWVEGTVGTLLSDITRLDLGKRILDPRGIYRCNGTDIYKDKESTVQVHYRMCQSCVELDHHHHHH

[2] = biological target: T2, Human GUCY2c on tumor cells (T84, HT55) (human, UniProt P25092 24-1073); assay: flow cytometry titration on T84 tumor cells (PE-A Geo Mean against Ab in nM)
T2 construct: Endogenous receptor; also called GUCY2c expressing cell lines; T84 cells expressing human GUCY2c
T2 sequence (P25092 24-1073 limits assumed): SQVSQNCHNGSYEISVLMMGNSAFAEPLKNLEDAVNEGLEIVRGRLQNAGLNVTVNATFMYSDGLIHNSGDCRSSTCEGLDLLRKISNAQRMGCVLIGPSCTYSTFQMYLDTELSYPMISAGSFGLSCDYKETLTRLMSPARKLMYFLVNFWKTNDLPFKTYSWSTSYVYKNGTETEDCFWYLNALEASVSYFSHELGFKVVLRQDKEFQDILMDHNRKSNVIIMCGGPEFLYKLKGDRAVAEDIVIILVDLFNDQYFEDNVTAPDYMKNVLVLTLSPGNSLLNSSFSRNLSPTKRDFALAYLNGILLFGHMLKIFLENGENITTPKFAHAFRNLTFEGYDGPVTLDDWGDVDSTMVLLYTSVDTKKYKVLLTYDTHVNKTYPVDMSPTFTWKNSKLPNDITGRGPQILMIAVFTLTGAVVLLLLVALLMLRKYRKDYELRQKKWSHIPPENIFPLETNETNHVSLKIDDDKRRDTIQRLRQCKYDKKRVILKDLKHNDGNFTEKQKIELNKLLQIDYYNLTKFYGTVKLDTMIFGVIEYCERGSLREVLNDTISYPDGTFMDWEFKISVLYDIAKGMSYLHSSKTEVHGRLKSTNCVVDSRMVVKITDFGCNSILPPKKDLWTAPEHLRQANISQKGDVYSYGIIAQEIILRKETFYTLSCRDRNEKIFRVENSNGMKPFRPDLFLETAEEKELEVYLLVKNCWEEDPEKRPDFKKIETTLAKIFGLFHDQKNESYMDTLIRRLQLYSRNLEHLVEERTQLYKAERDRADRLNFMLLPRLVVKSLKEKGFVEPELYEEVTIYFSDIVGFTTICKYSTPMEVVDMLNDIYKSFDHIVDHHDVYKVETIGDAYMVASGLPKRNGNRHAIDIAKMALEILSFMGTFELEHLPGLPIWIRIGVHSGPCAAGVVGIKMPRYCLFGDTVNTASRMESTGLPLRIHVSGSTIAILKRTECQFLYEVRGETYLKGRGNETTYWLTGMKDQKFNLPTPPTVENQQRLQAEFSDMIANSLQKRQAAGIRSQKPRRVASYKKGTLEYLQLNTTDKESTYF

[3] = biological target: T3, Cynomolgus GUCY2C-ECD Cleaved (cynomolgus, UniProt P25092 24-430 (human entry)); assay: direct DELFIA, RT
T3 construct: also called CyGUCY2C
T3 chain: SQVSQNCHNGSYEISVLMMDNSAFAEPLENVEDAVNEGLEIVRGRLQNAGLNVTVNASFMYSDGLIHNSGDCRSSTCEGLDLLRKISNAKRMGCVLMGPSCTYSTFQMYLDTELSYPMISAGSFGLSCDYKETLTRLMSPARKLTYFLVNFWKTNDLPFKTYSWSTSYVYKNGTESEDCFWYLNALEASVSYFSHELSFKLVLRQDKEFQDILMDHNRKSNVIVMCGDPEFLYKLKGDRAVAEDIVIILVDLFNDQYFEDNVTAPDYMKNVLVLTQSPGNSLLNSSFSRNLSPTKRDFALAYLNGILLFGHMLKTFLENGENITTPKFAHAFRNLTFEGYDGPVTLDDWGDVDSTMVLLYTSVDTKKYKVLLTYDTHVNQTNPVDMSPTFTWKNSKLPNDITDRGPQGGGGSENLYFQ

[4] = biological target: T2, Human GUCY2c on tumor cells (T84, HT55); assay: cell-based or functional assay
[5] = biological target: T2, Human GUCY2c on tumor cells (T84, HT55); assay: cell-based or functional assay; remark: listed apart in the source
[6] = biological target: T3, Cynomolgus GUCY2C-ECD Cleaved; assay: direct DELFIA, 60 C
[7] = biological target: T4, Human GUCY2C full length (SEQ ID NO: 224), recombinant protein (human, UniProt P25092 24-430, limits assumed); assay: SPR, GUCY2c directly immobilized, 25 C
T4 construct: also called huGUCY2C; biotinylated human GUCY2c
T4 sequence (P25092 24-430 F281L limits assumed): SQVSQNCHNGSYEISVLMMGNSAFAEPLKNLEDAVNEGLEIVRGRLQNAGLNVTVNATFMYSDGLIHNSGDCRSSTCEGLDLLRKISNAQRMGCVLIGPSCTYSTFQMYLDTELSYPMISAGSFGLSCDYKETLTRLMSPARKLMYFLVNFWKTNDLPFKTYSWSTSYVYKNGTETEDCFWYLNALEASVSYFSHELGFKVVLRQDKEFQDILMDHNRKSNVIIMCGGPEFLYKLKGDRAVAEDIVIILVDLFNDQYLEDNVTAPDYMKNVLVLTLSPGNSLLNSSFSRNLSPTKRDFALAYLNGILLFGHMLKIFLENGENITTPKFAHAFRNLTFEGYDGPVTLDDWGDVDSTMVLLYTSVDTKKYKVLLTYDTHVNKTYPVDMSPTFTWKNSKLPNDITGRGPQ

[8] = biological target: T5, Murine GUCY2C-ECD cleaved (mouse, UniProt Q3UWA6 20-433); assay: SPR, GUCY2c directly immobilized, 25 C
T5 sequence: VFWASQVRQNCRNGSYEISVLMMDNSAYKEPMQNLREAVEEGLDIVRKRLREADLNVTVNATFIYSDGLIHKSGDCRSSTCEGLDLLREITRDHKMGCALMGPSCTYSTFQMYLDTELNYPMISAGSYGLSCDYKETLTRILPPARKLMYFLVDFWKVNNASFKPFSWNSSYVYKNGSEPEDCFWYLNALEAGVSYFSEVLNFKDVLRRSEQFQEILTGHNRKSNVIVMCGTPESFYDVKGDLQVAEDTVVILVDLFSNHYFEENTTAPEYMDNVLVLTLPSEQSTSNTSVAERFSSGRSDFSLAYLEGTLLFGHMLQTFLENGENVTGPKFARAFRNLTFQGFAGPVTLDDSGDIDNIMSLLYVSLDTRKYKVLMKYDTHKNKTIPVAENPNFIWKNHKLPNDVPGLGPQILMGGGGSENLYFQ

[9] = biological target: Human CD3 on naive human T cells (human, UniProt P07766 23-207); assay: cell-based or functional assay
[10] = biological target: T3, Cynomolgus GUCY2C-ECD Cleaved; assay: SPR, GUCY2c directly immobilized, 37 C
[11] = biological target: T4, Human GUCY2C full length (SEQ ID NO: …); assay: SPR, GUCY2c directly immobilized, 37 C
Human CD3 epsilon-delta [12] = biological target: T1, Human CD3 epsilon-delta; assay: SPR, CD3 captured by anti-His, printed 25 C (Table 33C)
[13] = biological target: T6, Cynomolgus CD3 epsilon-delta (cynomolgus); assay: SPR, CD3 captured by anti-His, printed 25 C (Table 33F)
T6 chain: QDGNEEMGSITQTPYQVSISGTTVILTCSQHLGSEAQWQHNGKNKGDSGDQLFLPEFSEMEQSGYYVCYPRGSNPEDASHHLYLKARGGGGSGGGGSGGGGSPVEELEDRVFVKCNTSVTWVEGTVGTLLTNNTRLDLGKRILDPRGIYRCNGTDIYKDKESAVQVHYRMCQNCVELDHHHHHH

Human CD3 epsilon-delta [14] = biological target: T1, Human CD3 epsilon-delta; assay: SPR, recombinant human CD3

B1: GUCY2C-1608 (bispecific antibody)
chain 1: DIQLTQSPSSLSASVGDRVTITCRASESVDYYGSSLLQWYQQKPGKAPKLLIYAASKLASGVPSRFSGSGSGTDFTLTISSLQPEDFATYYCQQTRKAYTFGQGTKLEIKGGGSGGGGEVQLVESGGGLVQPGGSLRLSCAASGFTFSDYYMTWVRQAPGKGLEWVAFIRNQARGYTSDHNPSVKGRFTISRDNAKNSLYLQMNSLRAEDTAVYYCARDRPSYYVLDYWGQGTTVTVSSGCPPCPAPEAAGAPSVFLFPPKPKDTLMISRTPEVTCVVVDVSHEDPEVKFNWYVDGVEVHNAKTKPREEQYNSTYRVVSVLTVLHQDWLNGKEYKCKVSNKALPAPIEKTISKAKGQPREPQVCTLPPSREEMTKNQVSLWCLVKGFYPSDIAVEWESNGQPENNYKTTPPVLDSDGSFFLYSKLTVDKSRWQQGNVFSCSVMHEALHNHYTQKSLSLSPG
chain 2: DIQMTQSPSSLSASVGDRVTITCTSSQSLFNVRSQKNYLAWYQQKPGKAPKLLIYWASTRESGVPSRFSGSGSGTDFTLTISSLQPEDFATYYCKQSYDLFTFGGGTKVEIKGGGGSGGGGEVQLVESGGGLVQPGGSLRLSCAASGFTFSSYWMHWVRQAPGKGLEWIGEIKPSNELTNVHEKFKDRFTISVDKAKNSAYLQMNSLRAEDTAVYYCTRTITTTEGYWFFDVWGQGTLVTVSSGCPPCPAPEAAGAPSVFLFPPKPKDTLMISRTPEVTCVVVDVSHEDPEVKFNWYVDGVEVHNAKTKPREEQYNSTYRVVSVLTVLHQDWLNGKEYKCKVSNKALPAPIEKTISKAKGQPREPQVYTLPPCREEMTKNQVSLSCAVKGFYPSDIAVEWESNGQPENNYKTTPPVLDSDGSFFLVSKLTVDKSRWQQGNVFSCSVMHEALHNHYTQKSLSLSPG
notes: also called GUCY2c CD3 bispecific
- Kd (Human CD3 epsilon-delta [1]): 24 nM
- koff (Human CD3 epsilon-delta [1]): 0.00999 s⁻¹
- kon (Human CD3 epsilon-delta [1]): 418000 M⁻¹ s⁻¹
- Kd [2]: 0.62 nM
- EC50 [3]: 9.84 nM
- T84 tumor cell EC50 (T cell cytotoxicity, E:T 5:1) [4]: 0.19 nM
- T84 tumor cell EC50 (T cell cytotoxicity, E:T 5:1) [5]: 0.19 nM
- EC50 [6]: 49.9 nM
- Kd [7]: 7.47 nM
- koff [7]: 0.000758 s⁻¹
- kon [7]: 101000 M⁻¹ s⁻¹
- Kd [8]: 17.3 nM
- koff [8]: 0.00157 s⁻¹
- kon [8]: 91200 M⁻¹ s⁻¹
- In vitro Cytotoxicity (nM), T-cell retargeting assay [9]: 0.772 nM
- Kd [10]: 8.68 nM
- koff [10]: 0.00166 s⁻¹
- kon [10]: 191000 M⁻¹ s⁻¹
- Kd [11]: 13.5 nM
- koff [11]: 0.00217 s⁻¹
- kon [11]: 161000 M⁻¹ s⁻¹
- Kd (Human CD3 epsilon-delta [12]): 124 nM
- koff (Human CD3 epsilon-delta [12]): 0.09 s⁻¹
- kon (Human CD3 epsilon-delta [12]): 744000 M⁻¹ s⁻¹
- Kd [13]: 130 nM
- koff [13]: 0.0665 s⁻¹
- kon [13]: 514000 M⁻¹ s⁻¹
- Kd (Human CD3 epsilon-delta [14]): 128 nM
